Patent US8697369B2, “Method for screening a test substance for activating a receptor associated with FGF 21 activity” (National Institute of Advanced Industrial Science and …, priority 2007, dated 2014)
Each block holds one molecule with its values, some of them ahead of it.

What was measured:
Assay type in all cases: cell-based
[1] = target: T1, humanized FGFR1c/humanized betaKlotho (hβKlotho)-expressing cells (Homo sapiens, UniProt P11362+Q86Z14); assay: DNA synthesis in humanized FGFR1c/humanized betaKlotho-expressing BaF3 cells; settings: humanized FGFR1c and humanized betaKlotho; 10 μg/ml heparin
T1 construct: expressed in transfected cells; host or cells: BaF3 (mouse pro-B) cells; pSRalpha (FGFR1c), pcDNA3.1 (betaKlotho)
Source text: (§1) In Examples 4, 5, 6, and 7, it was shown that FGF21 reacts with FGFR1c in the presence of betaKlotho. FGFR1c, betaKlotho, FGF21, and the like, which were used in an actual experimental system, were all derived from mice used as typical mammalian models. With regard to these molecules, the homology between a human and a mouse at the amino acid sequence level is extremely high (80% in FGF21, 78% in betaKlotho, and 98% in FGFR1). As a result, naturally, there are no problems regarding the compatibility of the human with the mouse, and thus it is clear that the same results as those from a murine molecule will be obtained even using a humanized molecule. In the present example, as a precautionary measure, an experimental system using a humanized molecule was constructed to confirm such respect, and an experiment was carried out. Specifically, the humanized cDNA of FGFR1c and that of betaKlotho were prepared from a commercially available human RNA sample (Takara Bio Inc.) by PCR. FGFR1c was introduced into an expression vector having an SRalpha promoter (pSRalpha), and betaKlotho was introduced into an expression vector having a CMV promoter (pcDNA3.1; Invitrogen). […] In the presence of heparin, humanized FGF21 was added in various types of concentrations to FGFR1c-expressing cells or FGFR1c/betaKlotho-co-expressing cells, and the amount of DNA synthesized was then measured.

[2] = target: T2, humanized FGFR1c (hR1c)-expressing BaF3 cells (Homo sapiens, UniProt P11362); assay: DNA synthesis in humanized FGFR1c-expressing BaF3 cells; settings: humanized FGFR1c only; 10 μg/ml heparin
T2 construct: expressed in transfected cells; host or cells: BaF3 (mouse pro-B) cells; pSRalpha vector
Source text: as §1

[3] = system: adipocytes differentiated from 3T3-L1 cells; assay: GLUT1 mRNA expression in 3T3-L1 cells differentiated into adipocytes; settings: various concentrations, 6 hours
Protocol: It has been reported that FGF21 allows adipocytes to increasingly express glucose transporter 1 (GLUT1). In the present example, as cultured adipocytes, there were used 3T3-L1 cells that are fibroblasts having the ability to differentiate into adipocytes by controlling culture conditions. The cells were cultured in a culture solution of a Dulbecco's modified Eagle medium (DMEM) containing 10% fetal bovine serum (FBS), so as to prepare cells maintaining an undifferentiated property as fibroblasts. The prepared cells were cultured in a test system, and they were allowed to grow to a confluent state. The cells were then left for 2 days. Thereafter, the culture solution was exchanged with DMEM as a culture solution used for differentiation induction, which comprised 10% FBS, 0.25 μM dexamethasone, 0.5 mM methyl isobutyl xanthine, and 5 μg/ml insulin. The cells were cultured for 2 days. […] The term “cells having the properties of adipocytes” is used herein to mean cells, which conduct intracellular metabolism specific to adipocytes and have cytoplasm in which large quantities of fat droplets are accumulated.
FGF21 were added in various types of concentrations to such different types of culture solutions, and the cells were further culture for 6 hours. Thereafter, RNA was extracted, and the copy number of GLUT1 was counted.

[4] = system: 3T3-L1 fibroblasts forced to express betaKlotho; assay: Phosphorylation of FRS2 and MAPK in undifferentiated 3T3-L1 cells forced to express betaKlotho; settings: betaKlotho expression vector; FGF21 1.1 μg/ml and 4.5 μg/ml; 10 minutes
Protocol: (§2) A betaKlotho expression vector produced by the method described in Example 4 and an empty vector used as a control, into which betaKlotho cDNA had not been inserted, were introduced into 3T3-L1 fibroblasts cultured as described in Example 1 by a lipofection method, thereby obtaining Puromycin-resistant clones. These different types of cells were stimulated with FGF21, and 10 minutes after the stimulation, a cell lysate was prepared. The activation of FRS2 and MAPK that were signaling molecules located downstream of FGFR was examined by a Western blotting method.

[5] = system: undifferentiated 3T3-L1 cells that had not expressed betaKlotho; assay: Phosphorylation of FRS2 and MAPK in undifferentiated 3T3-L1 cells not expressing betaKlotho; settings: 10 minutes
Protocol: as §2

T2 sequence (P11362 22-822): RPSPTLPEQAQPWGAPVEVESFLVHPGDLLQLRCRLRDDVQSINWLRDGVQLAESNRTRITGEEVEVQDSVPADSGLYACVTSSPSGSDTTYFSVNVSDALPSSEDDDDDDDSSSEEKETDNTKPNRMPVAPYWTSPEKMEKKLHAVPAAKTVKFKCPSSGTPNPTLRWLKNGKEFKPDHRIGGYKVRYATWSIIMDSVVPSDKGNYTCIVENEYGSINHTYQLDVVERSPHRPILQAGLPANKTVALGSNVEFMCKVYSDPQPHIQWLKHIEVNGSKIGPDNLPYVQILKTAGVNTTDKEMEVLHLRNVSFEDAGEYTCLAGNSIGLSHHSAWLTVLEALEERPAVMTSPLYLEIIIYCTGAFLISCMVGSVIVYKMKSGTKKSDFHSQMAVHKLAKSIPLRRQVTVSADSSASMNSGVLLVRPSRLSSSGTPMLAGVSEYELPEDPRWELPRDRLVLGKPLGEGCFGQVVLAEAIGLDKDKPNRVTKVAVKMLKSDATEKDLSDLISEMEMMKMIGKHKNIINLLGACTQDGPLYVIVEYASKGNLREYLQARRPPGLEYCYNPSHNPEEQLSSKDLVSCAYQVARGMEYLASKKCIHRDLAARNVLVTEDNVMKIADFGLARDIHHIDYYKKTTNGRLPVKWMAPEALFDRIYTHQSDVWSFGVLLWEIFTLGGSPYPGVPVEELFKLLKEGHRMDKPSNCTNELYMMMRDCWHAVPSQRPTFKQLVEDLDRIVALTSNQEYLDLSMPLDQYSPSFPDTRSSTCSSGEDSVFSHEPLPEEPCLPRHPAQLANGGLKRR
T1 sequence (P11362 22-822): as above
T1 sequence (Q86Z14 whole entry): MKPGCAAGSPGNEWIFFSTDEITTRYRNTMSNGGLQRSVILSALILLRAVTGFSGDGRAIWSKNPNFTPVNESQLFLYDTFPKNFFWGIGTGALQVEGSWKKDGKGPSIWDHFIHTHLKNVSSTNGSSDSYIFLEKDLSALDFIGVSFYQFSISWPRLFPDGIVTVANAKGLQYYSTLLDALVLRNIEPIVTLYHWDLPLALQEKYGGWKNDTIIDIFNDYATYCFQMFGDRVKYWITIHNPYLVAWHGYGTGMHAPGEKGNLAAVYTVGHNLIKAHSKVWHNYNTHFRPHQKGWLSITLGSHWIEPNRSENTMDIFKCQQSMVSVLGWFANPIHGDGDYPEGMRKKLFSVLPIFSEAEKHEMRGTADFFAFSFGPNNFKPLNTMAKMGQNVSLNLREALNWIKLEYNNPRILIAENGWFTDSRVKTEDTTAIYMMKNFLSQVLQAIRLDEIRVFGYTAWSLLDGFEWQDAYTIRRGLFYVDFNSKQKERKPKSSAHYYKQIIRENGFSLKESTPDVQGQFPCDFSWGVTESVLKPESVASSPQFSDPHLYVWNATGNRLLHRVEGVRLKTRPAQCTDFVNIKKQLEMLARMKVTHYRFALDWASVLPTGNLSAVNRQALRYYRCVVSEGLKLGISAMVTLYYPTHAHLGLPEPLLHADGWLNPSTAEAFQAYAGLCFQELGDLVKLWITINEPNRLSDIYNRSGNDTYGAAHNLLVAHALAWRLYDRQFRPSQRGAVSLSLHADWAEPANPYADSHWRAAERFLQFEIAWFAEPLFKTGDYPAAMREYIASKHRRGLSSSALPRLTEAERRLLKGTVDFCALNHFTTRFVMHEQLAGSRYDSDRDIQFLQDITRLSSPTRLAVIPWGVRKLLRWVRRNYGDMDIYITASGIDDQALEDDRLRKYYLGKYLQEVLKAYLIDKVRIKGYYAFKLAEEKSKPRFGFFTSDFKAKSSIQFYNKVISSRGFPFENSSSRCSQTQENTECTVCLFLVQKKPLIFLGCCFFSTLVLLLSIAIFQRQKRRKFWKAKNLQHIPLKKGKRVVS

amount of DNA synthesized (thymidine incorporation) [1]: promoted the DNA synthesis
amount of DNA synthesized (thymidine incorporation) [2]: promoted the DNA synthesis
Molecule: FGF1: conventional FGF used as a control

B1: FGF21: fibroblast growth factor 21; mouse-derived protein used in Examples 1-7 and 10-13 (protein)
chain: AYPIPDSSPLLQFGGQVRQRYLYTDDDQDTEAHLEIREDGTVVGAAHRSPESLLELKALKPGVIQILGVKASRFLCQQPDGALYGSPHFDPEACSFRELLLEDGYNVYQSEAHGLPLRLPQKDSPNQDATSWGPVRFLPMPGLLHEPQDQAGFLPPEPPDVGSSDPLSMVEPLQGRSPSYAS
expression level of GLUT1 mRNA [3]: increased
phosphorylation levels of FRS2 and MAPK [4]: increased
phosphorylated state of FRS2 and MAPK [5]: do not change
